Changes are numbered by the printed parent chain. Names may count otherwise. Each block holds one binder with its values, some of them ahead of it.
Assays:
[1] = target: biotinylated His-Avi-TEAD (194-411) (UniProt P28347); assay: SPR (Biacore T100, 25 C), captured biotinylated TEAD, peptide as analyte, single cycle kinetics
[2] = target: biotinylated His-Avi-TEAD (194-411) (UniProt P28347); assay: SPR, single cycle kinetics, biotinylated TEAD captured on the chip, peptide injected at 0.044, 0.133, 0.4, 1.2, 3.6 nM
[3] = target: biotinylated His-Avi-TEAD (194-411) (UniProt P28347); assay: SSM screen, enrichment after two rounds of sorting
[4] = target: biotinylated His-Avi-TEAD (194-411) (UniProt P28347); assay: SPR, steady-state response against peptide concentration (M, log axis) with fitted curve
[5] = target: biotinylated His-Avi-TEAD (194-411) (UniProt P28347); assay: SPR (Biacore T100, 25 C), captured biotinylated TEAD, peptide as analyte, steady-state
[6] = target: biotinylated His-Avi-TEAD (194-411) (UniProt P28347); assay: SPR (Biacore T100, 25 C), captured biotinylated TEAD, peptide as analyte, kinetics 1:1 binding

Kd [1]: 0.372 nM
koff [1]: 0.00767 s⁻¹
kon [1]: 2.06e+07 M⁻¹ s⁻¹
Kd [2]: 0.372 nM
B1: peptide of SEQ ID NO: 10 (designed binder)
chain: GSPDEYIERAKECCKKQDIQCCLRIFDESGDPNVMLICLFCW

enrichment score [3]: -0.29
B2: P01K variant of SEQ ID NO: 1 (designed binder)
chain: B1 chain with P3K, Q17G, I25Y, D27E, W42P

enrichment score [3]: -2.66
B3: A08E variant of SEQ ID NO: 1 (designed binder)
chain: B1 chain with A10E, Q17G, I25Y, D27E, W42P

enrichment score [3]: 3.95
B4: K09E variant of SEQ ID NO: 1 (designed binder)
chain: B1 chain with K11E, Q17G, I25Y, D27E, W42P

enrichment score [3]: -0.31
B5: E03H variant of SEQ ID NO: 1 (designed binder)
chain: B1 chain with E5H, Q17G, I25Y, D27E, W42P

enrichment score [3]: -0.88
B6: P01H variant of SEQ ID NO: 1 (designed binder)
chain: B1 chain with P3H, Q17G, I25Y, D27E, W42P

enrichment score [3]: -6.52
B7: Y04E variant of SEQ ID NO: 1 (designed binder)
chain: B1 chain with Y6E, Q17G, I25Y, D27E, W42P

enrichment score [3]: -2.99
B8: I05H variant of SEQ ID NO: 1 (designed binder)
chain: B1 chain with I7H, Q17G, I25Y, D27E, W42P

enrichment score [3]: -0.32
B9: R07H variant of SEQ ID NO: 1 (designed binder)
chain: B1 chain with R9H, Q17G, I25Y, D27E, W42P

enrichment score [3]: -1.97
B10: E10H variant of SEQ ID NO: 1 (designed binder)
chain: B1 chain with E12H, Q17G, I25Y, D27E, W42P

enrichment score [3]: -1.05
B11: D02H variant of SEQ ID NO: 1 (designed binder)
chain: B1 chain with D4H, Q17G, I25Y, D27E, W42P

enrichment score [3]: -1.57
B12: E06H variant of SEQ ID NO: 1 (designed binder)
chain: B1 chain with E8H, Q17G, I25Y, D27E, W42P

enrichment score [3]: -1.23
B13: I05E variant of SEQ ID NO: 1 (designed binder)
chain: B1 chain with I7E, Q17G, I25Y, D27E, W42P

enrichment score [3]: -1.58
B14: Y04K variant of SEQ ID NO: 1 (designed binder)
chain: B1 chain with Y6K, Q17G, I25Y, D27E, W42P

enrichment score [3]: 1.16
B15: D02E variant of SEQ ID NO: 1 (designed binder)
chain: B1 chain with D4E, Q17G, I25Y, D27E, W42P

enrichment score [3]: -1.5
B16: K09H variant of SEQ ID NO: 1 (designed binder)
chain: B1 chain with K11H, Q17G, I25Y, D27E, W42P

enrichment score [3]: -0.5
B17: E03K variant of SEQ ID NO: 1 (designed binder)
chain: B1 chain with E5K, Q17G, I25Y, D27E, W42P

enrichment score [3]: -0.16
B18: R07E variant of SEQ ID NO: 1 (designed binder)
chain: B1 chain with R9E, Q17G, I25Y, D27E, W42P

EC50 (read off the curve) [4]: 6 nM
Kd [5]: 6.3 nM
koff [6]: 0.117 s⁻¹
kon [6]: 3.1e+07 M⁻¹ s⁻¹
B19: peptide of SEQ ID NO: 11 (designed binder)
chain: B1 chain with G30K, W42P

enrichment score [3]: -1.07
B20: D02K variant of SEQ ID NO: 1 (designed binder)
chain: B1 chain with D4K, Q17G, I25Y, D27E, W42P

enrichment score [3]: -1.9
B21: Y04H variant of SEQ ID NO: 1 (designed binder)
chain: B1 chain with Y6H, Q17G, I25Y, D27E, W42P

enrichment score [3]: -7.27
B22: A08H variant of SEQ ID NO: 1 (designed binder)
chain: B1 chain with A10H, Q17G, I25Y, D27E, W42P

EC50 (read off the curve) [4]: 40 nM
Kd [5]: 39 nM
B23: peptide of SEQ ID NO: 8 (designed binder)
chain: GSPDEYIERARRCCRRGDIQCCLRYFEESGDPNVMLICLFCP

Source: patent US20230151068A1
